From paper PMC6543031 come the findings set out here.

The target of this experiment is N-tagged HA-SadB protein (Pseudomonas fluorescens F113). The experiment in a line: SEC; gel filtration of HA-SadB, in the presence or absence of c-di-GMP; data not shown. On the technique in general: SEC sorts molecules by how far they enter the pores of the column.

The substance “N-tagged HA-SadB protein (natural protein)” displayed a stoichiometry N of 2.

By stoichiometry N is commonly meant the number of molecules, sites or subunits per partner or assembly.
